The record followed here is paper doi:10.1101/2020.05.01.070730 (bioRxiv, 2020).

The stoichiometry N is the number of molecules, sites or subunits per partner or assembly.

B1: MutS from Pseudomonas aeruginosa (natural protein, UniProt Q9HY08 1-855, looked up)
chain: MTDLSQHTPMMQQYFKLKHQHPDQLMFYRMGDFYELFYEDAKKAAKLLDITLTARGQSGGKAIPMAGIPFHSAEGYLAKLVKLGESVAICEQIGDPATSKGPVERQVVRIITPGTVSDEALLDERRDNLLAAILGDERLFGLAVLDITSGRFSVQEIKGWETLLAELERLNPAELLIPDDWPQGLPAEKRRGVRRRAPWDFDRDSAHKSLCQQFGTQDLKGFGCQNLTLAIGAAGCLLAYAKETQRTALPHLRSLRHDRLDDTVILDGASRRNLELDINLSGGRENTLQSVVDRCQTAMASRLMSRWLNRPLRDRAVLEARQESIACLLERYRFENLQPQLKEIGDLERILARIGLRNARPRDLARLRDALAALPDLQNAMTELEAPHLQALATTIGTYPELAELLAKAIIDNPPAVIRDGGVIKTGYDAELDELQALSENAGQFLMDLEAREKARTGLPNLKVGYNRIHGYFIELPRVQAEQAPADYIRRQTLKGAERFITPELKAFEDKALSAQSRALAREKALYEELLERLIGHLAPLQDSASALAELDVLANLAERALNLDLNRPRFVEHTCLHIEQGRHPVVEQVLETPFVANDLALDADTRMLVITGPNMGGKSTYMRQTALIVLLAHIGSFVPAARCELSLVDRIFTRIGSSDDLAGGRSTFMVEMSETANILHNATDKSLVLMDEVGRGTSTFDGLSLAWAAAEDLARTRAFTLFATHYFELTVLPESQPAVANVHLNATEHNERIVFLHHVLPGPASQSYGLAVAQLAGVPAPVIQRAREHLKRLETTSLPHEMPSQQSGKPASPMQSDLFASLPHPVIDELSRINPDDISPRQALDLLYAWKMRV
B2: MutSF33A (natural protein, Pseudomonas aeruginosa, UniProt Q9HY08 1-855, looked up)
chain: MTDLSQHTPMMQQYFKLKHQHPDQLMFYRMGDAYELFYEDAKKAAKLLDITLTARGQSGGKAIPMAGIPFHSAEGYLAKLVKLGESVAICEQIGDPATSKGPVERQVVRIITPGTVSDEALLDERRDNLLAAILGDERLFGLAVLDITSGRFSVQEIKGWETLLAELERLNPAELLIPDDWPQGLPAEKRRGVRRRAPWDFDRDSAHKSLCQQFGTQDLKGFGCQNLTLAIGAAGCLLAYAKETQRTALPHLRSLRHDRLDDTVILDGASRRNLELDINLSGGRENTLQSVVDRCQTAMASRLMSRWLNRPLRDRAVLEARQESIACLLERYRFENLQPQLKEIGDLERILARIGLRNARPRDLARLRDALAALPDLQNAMTELEAPHLQALATTIGTYPELAELLAKAIIDNPPAVIRDGGVIKTGYDAELDELQALSENAGQFLMDLEAREKARTGLPNLKVGYNRIHGYFIELPRVQAEQAPADYIRRQTLKGAERFITPELKAFEDKALSAQSRALAREKALYEELLERLIGHLAPLQDSASALAELDVLANLAERALNLDLNRPRFVEHTCLHIEQGRHPVVEQVLETPFVANDLALDADTRMLVITGPNMGGKSTYMRQTALIVLLAHIGSFVPAARCELSLVDRIFTRIGSSDDLAGGRSTFMVEMSETANILHNATDKSLVLMDEVGRGTSTFDGLSLAWAAAEDLARTRAFTLFATHYFELTVLPESQPAVANVHLNATEHNERIVFLHHVLPGPASQSYGLAVAQLAGVPAPVIQRAREHLKRLETTSLPHEMPSQQSGKPASPMQSDLFASLPHPVIDELSRINPDDISPRQALDLLYAWKMRV
B3: MutSR272A (natural protein, Pseudomonas aeruginosa, UniProt Q9HY08 1-855, looked up)
chain: MTDLSQHTPMMQQYFKLKHQHPDQLMFYRMGDFYELFYEDAKKAAKLLDITLTARGQSGGKAIPMAGIPFHSAEGYLAKLVKLGESVAICEQIGDPATSKGPVERQVVRIITPGTVSDEALLDERRDNLLAAILGDERLFGLAVLDITSGRFSVQEIKGWETLLAELERLNPAELLIPDDWPQGLPAEKRRGVRRRAPWDFDRDSAHKSLCQQFGTQDLKGFGCQNLTLAIGAAGCLLAYAKETQRTALPHLRSLRHDRLDDTVILDGASRANLELDINLSGGRENTLQSVVDRCQTAMASRLMSRWLNRPLRDRAVLEARQESIACLLERYRFENLQPQLKEIGDLERILARIGLRNARPRDLARLRDALAALPDLQNAMTELEAPHLQALATTIGTYPELAELLAKAIIDNPPAVIRDGGVIKTGYDAELDELQALSENAGQFLMDLEAREKARTGLPNLKVGYNRIHGYFIELPRVQAEQAPADYIRRQTLKGAERFITPELKAFEDKALSAQSRALAREKALYEELLERLIGHLAPLQDSASALAELDVLANLAERALNLDLNRPRFVEHTCLHIEQGRHPVVEQVLETPFVANDLALDADTRMLVITGPNMGGKSTYMRQTALIVLLAHIGSFVPAARCELSLVDRIFTRIGSSDDLAGGRSTFMVEMSETANILHNATDKSLVLMDEVGRGTSTFDGLSLAWAAAEDLARTRAFTLFATHYFELTVLPESQPAVANVHLNATEHNERIVFLHHVLPGPASQSYGLAVAQLAGVPAPVIQRAREHLKRLETTSLPHEMPSQQSGKPASPMQSDLFASLPHPVIDELSRINPDDISPRQALDLLYAWKMRV
B4: MutSR272E (natural protein, Pseudomonas aeruginosa, UniProt Q9HY08 1-855, looked up)
chain: MTDLSQHTPMMQQYFKLKHQHPDQLMFYRMGDFYELFYEDAKKAAKLLDITLTARGQSGGKAIPMAGIPFHSAEGYLAKLVKLGESVAICEQIGDPATSKGPVERQVVRIITPGTVSDEALLDERRDNLLAAILGDERLFGLAVLDITSGRFSVQEIKGWETLLAELERLNPAELLIPDDWPQGLPAEKRRGVRRRAPWDFDRDSAHKSLCQQFGTQDLKGFGCQNLTLAIGAAGCLLAYAKETQRTALPHLRSLRHDRLDDTVILDGASRENLELDINLSGGRENTLQSVVDRCQTAMASRLMSRWLNRPLRDRAVLEARQESIACLLERYRFENLQPQLKEIGDLERILARIGLRNARPRDLARLRDALAALPDLQNAMTELEAPHLQALATTIGTYPELAELLAKAIIDNPPAVIRDGGVIKTGYDAELDELQALSENAGQFLMDLEAREKARTGLPNLKVGYNRIHGYFIELPRVQAEQAPADYIRRQTLKGAERFITPELKAFEDKALSAQSRALAREKALYEELLERLIGHLAPLQDSASALAELDVLANLAERALNLDLNRPRFVEHTCLHIEQGRHPVVEQVLETPFVANDLALDADTRMLVITGPNMGGKSTYMRQTALIVLLAHIGSFVPAARCELSLVDRIFTRIGSSDDLAGGRSTFMVEMSETANILHNATDKSLVLMDEVGRGTSTFDGLSLAWAAAEDLARTRAFTLFATHYFELTVLPESQPAVANVHLNATEHNERIVFLHHVLPGPASQSYGLAVAQLAGVPAPVIQRAREHLKRLETTSLPHEMPSQQSGKPASPMQSDLFASLPHPVIDELSRINPDDISPRQALDLLYAWKMRV
B5: MutSR842E (natural protein, Pseudomonas aeruginosa, UniProt Q9HY08 1-855, looked up)
chain: MTDLSQHTPMMQQYFKLKHQHPDQLMFYRMGDFYELFYEDAKKAAKLLDITLTARGQSGGKAIPMAGIPFHSAEGYLAKLVKLGESVAICEQIGDPATSKGPVERQVVRIITPGTVSDEALLDERRDNLLAAILGDERLFGLAVLDITSGRFSVQEIKGWETLLAELERLNPAELLIPDDWPQGLPAEKRRGVRRRAPWDFDRDSAHKSLCQQFGTQDLKGFGCQNLTLAIGAAGCLLAYAKETQRTALPHLRSLRHDRLDDTVILDGASRRNLELDINLSGGRENTLQSVVDRCQTAMASRLMSRWLNRPLRDRAVLEARQESIACLLERYRFENLQPQLKEIGDLERILARIGLRNARPRDLARLRDALAALPDLQNAMTELEAPHLQALATTIGTYPELAELLAKAIIDNPPAVIRDGGVIKTGYDAELDELQALSENAGQFLMDLEAREKARTGLPNLKVGYNRIHGYFIELPRVQAEQAPADYIRRQTLKGAERFITPELKAFEDKALSAQSRALAREKALYEELLERLIGHLAPLQDSASALAELDVLANLAERALNLDLNRPRFVEHTCLHIEQGRHPVVEQVLETPFVANDLALDADTRMLVITGPNMGGKSTYMRQTALIVLLAHIGSFVPAARCELSLVDRIFTRIGSSDDLAGGRSTFMVEMSETANILHNATDKSLVLMDEVGRGTSTFDGLSLAWAAAEDLARTRAFTLFATHYFELTVLPESQPAVANVHLNATEHNERIVFLHHVLPGPASQSYGLAVAQLAGVPAPVIQRAREHLKRLETTSLPHEMPSQQSGKPASPMQSDLFASLPHPVIDELSRINPDDISPEQALDLLYAWKMRV
B6: MutSN279A (natural protein, Pseudomonas aeruginosa, UniProt Q9HY08 1-855, looked up)
chain: MTDLSQHTPMMQQYFKLKHQHPDQLMFYRMGDFYELFYEDAKKAAKLLDITLTARGQSGGKAIPMAGIPFHSAEGYLAKLVKLGESVAICEQIGDPATSKGPVERQVVRIITPGTVSDEALLDERRDNLLAAILGDERLFGLAVLDITSGRFSVQEIKGWETLLAELERLNPAELLIPDDWPQGLPAEKRRGVRRRAPWDFDRDSAHKSLCQQFGTQDLKGFGCQNLTLAIGAAGCLLAYAKETQRTALPHLRSLRHDRLDDTVILDGASRRNLELDIALSGGRENTLQSVVDRCQTAMASRLMSRWLNRPLRDRAVLEARQESIACLLERYRFENLQPQLKEIGDLERILARIGLRNARPRDLARLRDALAALPDLQNAMTELEAPHLQALATTIGTYPELAELLAKAIIDNPPAVIRDGGVIKTGYDAELDELQALSENAGQFLMDLEAREKARTGLPNLKVGYNRIHGYFIELPRVQAEQAPADYIRRQTLKGAERFITPELKAFEDKALSAQSRALAREKALYEELLERLIGHLAPLQDSASALAELDVLANLAERALNLDLNRPRFVEHTCLHIEQGRHPVVEQVLETPFVANDLALDADTRMLVITGPNMGGKSTYMRQTALIVLLAHIGSFVPAARCELSLVDRIFTRIGSSDDLAGGRSTFMVEMSETANILHNATDKSLVLMDEVGRGTSTFDGLSLAWAAAEDLARTRAFTLFATHYFELTVLPESQPAVANVHLNATEHNERIVFLHHVLPGPASQSYGLAVAQLAGVPAPVIQRAREHLKRLETTSLPHEMPSQQSGKPASPMQSDLFASLPHPVIDELSRINPDDISPRQALDLLYAWKMRV

The series concerns the molecule itself. In words: native gel or EMSA. For orientation: A gel shift assay detects complexes by their altered migration in electrophoresis.
For the protein B1, the “stoichiometry N” value came to 4.
On to B2, for which the “stoichiometry N” value was found to be 4.
For B3, the “stoichiometry N” value came out at 4.
For B4, the “stoichiometry N” value came out at 4.
Take B5: the “stoichiometry N” value is 2.
Turning to B6, the “stoichiometry N” value came out at 4.
